{"source": "paper PMC4422707", "target": "His-SUMO-2B protein (FMDV non-structural 2B protein fused to SUMO) (foot-and-mouth disease virus (FMDV) serotype Asia1)", "test": "cross-linking", "note": "Values joined by “and” are separate entries in the source; they are usually repeats but may differ in a detail not shown here. Equal entries are not always repeated."}
{"substance": "His-SUMO-2B protein (FMDV non-structural 2B protein fused to SUMO) (natural protein)", "values": [{"measurement": "stoichiometry N", "result": "2 and 4 and 6"}]}
